Data as given in patent EP3083697B1.

Tests used:
[1] = molecular target: ENO1 deletion mutant Δ1-189 (human) (UniProt P06733); assay: ELISA, mutant protein coated, 10 microgram EN10 mAb
[2] = molecular target: ENO1 deletion mutant Δ1-297 (human) (UniProt P06733); assay: as above

- OD405 [1]: 1.43 OD405
- percent of the OD405 of wild type ENO1 [1]: 42%
- OD405 [2]: 1.56 OD405
- percent of the OD405 of wild type ENO1 [2]: 39%
B1: EN10 mAb (antibody, V domains shown)
VH: EVQLQQSGPELVKPGASVKMSCKASGYTFTSCVMNWVKQKPGQGLEWIGYINPYNDGTKYNEKFKGKATLTSDKSSSTAYMELSSLTSEDSAVYYCAREGFYYGNFDNWGQGTTLTVSS
VL: DIQMTQSPASLSASVGETVTITCRASENIYSYLTWYQQKQGKSPQLLVYNAKTLPEGVPSRFSGSGSGTQFSLKINSLQPEDFGSYYCQHHYGTPYTFGGGTKLEITR
